For 7 molecules, relative luminescence (RLU, Halo-CS control pair = 1), luminescence relative to the scrambled peptide and fold activity over the SmBiT peptide results are on record in PMC8508666.

Where two headings read alike, the source gives them in different places. Bounds are passed on as bounds.

In assay [1] the target is Sec61α, N-terminally tagged with LgBiT (Oplophorus gracilirostris | not stated). As to the kind of experiment: split reporter (BiFC, NanoBiT); bimolecular luminescence complementation in living HeLa cells, 96-well plate, 24 h after co-transfection of one LgBiT and one SmBiT fusion plasmid (50 ng each); furimazine added, signal 4 min later; RLU normalised to the LgBiT fusion plus Halo-CS set to 1; forskolin (15 µM) lowered the rPKA-cPKA signal; digitonin plus trypsin eliminated the signals.

Assay [2] deals with Sec61β, C-terminally tagged with LgBiT (not stated | Oplophorus gracilirostris). Described as above.
In assay [3] the target is regulatory subunit of protein kinase A, C-terminally tagged with LgBiT (not stated | Oplophorus gracilirostris). The assay is described as above.
Assay [4] has as its target Sec61β, C-terminally tagged with LgBiT (not stated | Oplophorus gracilirostris). As to the kind of experiment: split reporter (BiFC, NanoBiT); synthetic peptide complementation: HeLa cells expressing a LgBiT fusion, furimazine, then 0.002% digitonin, then synthetic peptide (scrambled, actin, SmBiT 1-100 µM; HaBiT up to 100 nM); signal 4 min after the peptide; RLU normalised to the scrambled peptide set to 1.

The target of assay [5] is regulatory subunit of protein kinase A, C-terminally tagged with LgBiT (not stated | Oplophorus gracilirostris). The assay is described as above.
For assay [6], the target named is Sec61α, C-terminally tagged with LgBiT (not stated | Oplophorus gracilirostris). The description is as above.
Assay [7] deals with TRAPβ, C-terminally tagged with LgBiT (not stated | Oplophorus gracilirostris). Described as above.
Assay [8] deals with TRAPα, C-terminally tagged with LgBiT (not stated | Oplophorus gracilirostris). The description is as above.
Assay [9] addresses Sec61α, N-terminally tagged with LgBiT (Oplophorus gracilirostris | not stated). Described as above.
Assay [10] deals with TRAPα, C-terminally tagged with LgBiT (not stated | Oplophorus gracilirostris). The assay is described as follows: split reporter (BiFC, NanoBiT); bimolecular luminescence complementation in living HeLa cells, 96-well plate, 24 h after co-transfection of one LgBiT and one SmBiT fusion plasmid (50 ng each); furimazine added, signal 4 min later; RLU normalised to the LgBiT fusion plus Halo-CS set to 1; forskolin (15 µM) lowered the rPKA-cPKA signal; digitonin plus trypsin eliminated the signals.

The target in assay [11] is Sec61β, C-terminally tagged with LgBiT (not stated | Oplophorus gracilirostris). The assay is described as follows: split reporter (BiFC, NanoBiT); synthetic peptide complementation: HeLa cells expressing a LgBiT fusion, furimazine, then 0.002% digitonin, then synthetic peptide (scrambled, actin, SmBiT 1-100 µM; HaBiT up to 100 nM); signal 4 min after the peptide; RLU normalised to the scrambled peptide set to 1. This is another data set of the same source.

The target of assay [12] is Sec61α, C-terminally tagged with LgBiT (not stated | Oplophorus gracilirostris). The assay is described as above. The source holds these as a separate data set.
Assay [13] has as its target TRAPβ, C-terminally tagged with LgBiT (not stated | Oplophorus gracilirostris). The assay is described as above. This is another data set of the same source.
The target in assay [14] is TRAPα, C-terminally tagged with LgBiT (not stated | Oplophorus gracilirostris). The description is as above. The source holds these as a separate data set.
Assay [15] deals with Sec61α, N-terminally tagged with LgBiT (Oplophorus gracilirostris | not stated). The description is as above. The source holds these as a separate data set.

In the case of “Sec61β, N-terminally tagged with SmBiT (from UniProt P60468 1-96) (natural protein)”, the relative luminescence (RLU, Halo-CS control pair = 1) in assay [1] worked out at 141 RLU.
As to “Sec63, N-terminally tagged with SmBiT (from UniProt Q9UGP8 1-760) (natural protein)”, the relative luminescence (RLU, Halo-CS control pair = 1) in assay [2] was determined as 202 RLU.
On to “catalytic subunit of protein kinase A, C-terminally tagged with SmBiT (from UniProt P17612 1-351) (enzyme)”, for which the relative luminescence (RLU, Halo-CS control pair = 1) in [3] was found to be 613 RLU.
Regarding “synthetic HaBiT peptide (high affinity variant of SmBiT)”, the luminescence relative to the scrambled peptide in assay [4] was more than 50 fold; in assay [6] it was 15 RLU; in assay [7], more than 50 fold; in assay [8] it was more than 50 fold; in assay [9], more than 50 fold. Moreover, the fold activity over the SmBiT peptide in assay [5] was 10000 fold.

B1: TRAPβ, C-terminally tagged with SmBiT (natural protein)
chain: EEGARLLASKSLLNRYAVEGRDLTLQYNIYNVGSSAALDVELSDDSFPPEDFGIVSGMLNVKWDRIAPASNVSHTVVLRPLKAGYFNFTSATITYLAQEDGPVVIGSTSAPGQGGILAQREFDRRFSPHFLDWAAFGVMTLPSIGIPLLLWYSSKRKYDTPKTKKN
Regarding B1, in assay [10], the relative luminescence (RLU, Halo-CS control pair = 1) is 91 RLU.

B2: TRAPα, C-terminally tagged with SmBiT (natural protein)
chain: VLFRGGPRGLLAVAQDLTEDEETVEDSIIEDEDDEAEVEEDEPTDLVEDKEEEDVSGEPEASPSADTTILFVKGEDFPANNIVKFLVGFTNKGTEDFIVESLDASFRYPQDYQFYIQNFTALPLNTVVPPQRQATFEYSFIPAEPMGGRPFGLVINLNYKDLNGNVFQDAVFNQTVTVIEREDGLDGETIFMYMFLAGLGLLVIVGLHQLLESRKRKRPIQKVEMGTSSQNDVDMSWIPQETLNQINKASPRRLPRKRAQKRSVGSDE
In the case of B2, the relative luminescence (RLU, Halo-CS control pair = 1) in assay [1] was 62 RLU.
As for CVTGYRLFEEIL [synthetic SmBiT peptide (11 + 1 aa)], the luminescence relative to the scrambled peptide is more than 10 fold in [11]; 2 RLU in assay [12]; more than 10 fold in assay [13]; more than 10 fold in [14]; more than 10 fold in [15].
